Substrate in this series: [H][C@]12Cc3ccccc3[C@@]1([H])OC(=O)/C2=C/O[C@@H]1C=C(C)C(=O)O1
Description: coupled enzyme assay (NADH oxidation), Lineweaver-Burk plot. It counts as biochemical, Sporobolus stapfianus. The conditions noted are these: pH 7.4, leaf protein extract 25 µg, background without substrate subtracted, vector-only control extract.

B1: SDG8i (Sporobolus stapfianus) (protein)
chain: MTKTVVLYPIRGAGHLTPMIQLARLFLQHGGFNVTVAIGSSPEDSDFSALVARAAAANPSVTFHILPQPSSTPDGSNTDVTPKHKHPVVHLFDTLGAMNAPLRDFLRSLPAVDALVVDMFCYDALDVAAELELPAYFLYASGAGDLAVFLNLPSARAGMTTSFAELGDTLLTLPGAPPFKASDLPADAINDNEVARCTRRMFERMPESHGILVNSFEALETRAVRALRDGLCVPDRATPPIYCIGPLVSGGGGEKEHECLRWLDAQPDNSVVFLCFGSMGTFSKKQLHDIAVGLEKSEQRFLWVVRSPRSDDHKFGEPRPELDLDAFLRDGFLERTKERGLVLKSWAPQVDVLHHRATGAFVTHCGWNSTLEGIMAGIPLLCWPLYAEQRMNKVFIVDELKLGVEMRGYNQEVVKAEEVESKVRWVLESEAGQAIRERVLAMKDKAAEALKEGGPSHVEFVKFLKDLEAVGRP
notes: unpurified leaf protein extract; no tag stated
Turning to B1, the Km amounted to 349 µM.

A word on the Km: it is the substrate concentration at which the rate is half of its maximum.

For the origin of these results see paper PMC3818285, “Increased Biomass, Seed Yield and Stress Tolerance Is Conferred in Arabidopsis by a Novel Enzyme from the Resurrection Grass Sporobolus stapfianus That Glycosylates the Strigolactone Analogue GR24” (PLoS ONE, 2013).
